Results from patent JP2024044204A (dated 2024).

Columns and labels:
[1] = molecular target: T1, SARS-CoV-2 RBD, Omicron strain (B.1.1.529 (BA.1)) (SARS-CoV-2 Omicron strain B.1.1.529 …, UniProt P0DTC2 319-541); experiment: ELISA of culture supernatant on Omicron RBD (Fig. 2-1)
T1 construct: also called Omicron-derived RBD; RBD protein (Omicron type)

[2] = molecular target: T1, SARS-CoV-2 RBD, Omicron strain …; experiment: ELISA on Omicron RBD (supernatant, Fig. 2-1; 300 ng/ml, Fig. 2-2)
[3] = molecular target: T1, SARS-CoV-2 RBD, Omicron strain …; experiment: ELISA on Omicron RBD, 300 ng/ml antibody (Fig. 2-2)

Row | Binder | binding result [1] | binding result [2] | also measured
1 | 28G_1-GN (UT28K S55G) (antibody, V domains shown) VH: QMQLVQSGPEVKKPGTSVKVSCKASGFTFSISAVQWVRQARGQRLEWIGWIVVGGGNTNYAQKFQERVTITRDMSTSTAYMELSSLRFEDTAVYYCAAPYCGGDCSDGFDIWGQGTMVTVSS VL: not shown | no binding |  | 
2 | 28G_3-SR (UT28K N57R) (antibody, V domains shown) VH: QMQLVQSGPEVKKPGTSVKVSCKASGFTFSISAVQWVRQARGQRLEWIGWIVVGSGRTNYAQKFQERVTITRDMSTSTAYMELSSLRFEDTAVYYCAAPYCGGDCSDGFDIWGQGTMVTVSS VL: not shown |  | no binding (tested: 300 ng/ml (Fig. 2-2)) | 
3 | 28G_5-SG (UT28K N57G) (antibody, V domains shown) VH: QMQLVQSGPEVKKPGTSVKVSCKASGFTFSISAVQWVRQARGQRLEWIGWIVVGSGGTNYAQKFQERVTITRDMSTSTAYMELSSLRFEDTAVYYCAAPYCGGDCSDGFDIWGQGTMVTVSS VL: not shown |  | no binding (tested: 300 ng/ml (Fig. 2-2)) | 
4 | 4_12-SS/WT (UT28K N57S) (antibody, V domains shown) VH: QMQLVQSGPEVKKPGTSVKVSCKASGFTFSISAVQWVRQARGQRLEWIGWIVVGSGSTNYAQKFQERVTITRDMSTSTAYMELSSLRFEDTAVYYCAAPYCGGDCSDGFDIWGQGTMVTVSS VL: not shown |  | no binding (tested: 300 ng/ml (Fig. 2-2)) | 
5 | UT28K N57E (antibody, V domains shown) VH: QMQLVQSGPEVKKPGTSVKVSCKASGFTFSISAVQWVRQARGQRLEWIGWIVVGSGETNYAQKFQERVTITRDMSTSTAYMELSSLRFEDTAVYYCAAPYCGGDCSDGFDIWGQGTMVTVSS VL: not shown |  |  | binding result [3]: no binding (tested: 300 ng/ml (Fig. 2-2))
6 | 28G_8-GG (UT28K S55G, N57G) (antibody, V domains shown) VH: QMQLVQSGPEVKKPGTSVKVSCKASGFTFSISAVQWVRQARGQRLEWIGWIVVGGGGTNYAQKFQERVTITRDMSTSTAYMELSSLRFEDTAVYYCAAPYCGGDCSDGFDIWGQGTMVTVSS VL: not shown | no binding |  | 
7 | 28G_6-GR (UT28K S55G, N57R) (antibody, V domains shown) VH: QMQLVQSGPEVKKPGTSVKVSCKASGFTFSISAVQWVRQARGQRLEWIGWIVVGGGRTNYAQKFQERVTITRDMSTSTAYMELSSLRFEDTAVYYCAAPYCGGDCSDGFDIWGQGTMVTVSS VL: not shown | no binding |  | 
